Laboratory results as given in publication PMC10397247.

Experiments:
[1] = target: T1, 4H3782-AA; assay: two-hybrid library CCmax; conditions: mean of both orientations;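 further: natural log of median RNA to DNA barcode read ratio; higher means stronger binding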
T1 chain: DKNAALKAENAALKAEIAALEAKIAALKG

[2] = target: T2, 4H2728-AA; assay: two-hybrid library CCmax; conditions: mean of both orientations;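 further: natural log of median RNA to DNA barcode read ratio; higher means stronger binding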
T2 chain: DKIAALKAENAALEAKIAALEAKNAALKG

[3] = target: T3, 4H2774-AA; assay: two-hybrid library CCmax; conditions: mean of both orientations;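 further: natural log of median RNA to DNA barcode read ratio; higher means stronger binding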
T3 chain: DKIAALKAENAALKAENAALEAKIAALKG

[4] = target: T4, 4H341-AA; assay: two-hybrid library CCmax; conditions: mean of both orientations;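 further: natural log of median RNA to DNA barcode read ratio; higher means stronger binding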
T4 chain: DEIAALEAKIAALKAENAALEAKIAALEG

[5] = target: T5, 4H380-AA; assay: two-hybrid library CCmax; conditions: mean of both orientations
T5 chain: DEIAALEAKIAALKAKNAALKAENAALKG

[6] = target: T6, 4H464-AA; assay: two-hybrid library CCmax; conditions: mean of both orientations
T6 chain: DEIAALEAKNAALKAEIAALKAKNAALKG

[7] = target: T7, 4H249-AA; assay: two-hybrid library CCmax; conditions: mean of both orientations
T7 chain: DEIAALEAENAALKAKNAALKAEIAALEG

[8] = target: T8, 4H3129-AA; assay: two-hybrid library CCmax
T8 chain: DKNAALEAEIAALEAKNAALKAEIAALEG

[9] = target: T9, 4H3414-AA; assay: two-hybrid library CCmax; conditions: mean of both orientations
T9 chain: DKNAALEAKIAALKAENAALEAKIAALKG

[10] = target: T10, 4H2580-AA; assay: two-hybrid library CCmax; conditions: mean of both orientations
T10 chain: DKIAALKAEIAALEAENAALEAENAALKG

[11] = target: T11, 4H3969-AA; assay: two-hybrid library CCmax; conditions: mean of both orientations
T11 chain: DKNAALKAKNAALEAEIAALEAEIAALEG

[12] = target: T12, 4H483-AA; assay: two-hybrid library CCmax; conditions: mean of both orientations
T12 chain: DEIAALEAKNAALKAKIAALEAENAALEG

[13] = target: T13, 4H446-AA; assay: two-hybrid library CCmax; conditions: mean of both orientations
T13 chain: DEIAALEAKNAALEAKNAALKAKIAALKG

[14] = target: T14, 4H2699-AA; assay: two-hybrid library CCmax; conditions: mean of both orientations
T14 chain: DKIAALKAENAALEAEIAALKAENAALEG

[15] = target: T15, 4H2621-AA; assay: two-hybrid library CCmax; conditions: mean of both orientations
T15 chain: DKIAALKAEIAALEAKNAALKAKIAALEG

[16] = target: T16, 4H1913-AA; assay: two-hybrid library CCmax
T16 chain: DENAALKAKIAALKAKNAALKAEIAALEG

[17] = target: T17, 4H3049-AA; assay: two-hybrid library CCmax; conditions: mean of both orientations
T17 chain: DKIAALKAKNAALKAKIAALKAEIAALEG

[18] = target: T18, 4H3629-AA; assay: two-hybrid library CCmax; conditions: mean of both orientations
T18 chain: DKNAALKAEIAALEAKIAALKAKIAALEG

[19] = target: T19, 4H63-AA; assay: two-hybrid library CCmax
T19 chain: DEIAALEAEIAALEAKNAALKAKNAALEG

[20] = target: T20, 4H2903-AA; assay: two-hybrid library CCmax; conditions: mean of both orientations
T20 chain: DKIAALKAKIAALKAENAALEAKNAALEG

[21] = target: T21, 4H3595-AA; assay: two-hybrid library CCmax; conditions: mean of both orientations
T21 chain: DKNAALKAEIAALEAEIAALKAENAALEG

[22] = target: T22, 4H3939-AA; assay: two-hybrid library CCmax; conditions: mean of both orientations
T22 chain: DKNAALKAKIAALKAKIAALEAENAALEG

[23] = target: T23, 4H2961-AA; assay: two-hybrid library CCmax; conditions: mean of both orientations
T23 chain: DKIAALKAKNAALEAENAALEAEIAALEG

[24] = target: T24, 4H3907-bN; assay: two-hybrid library CCNG1
T24 chain: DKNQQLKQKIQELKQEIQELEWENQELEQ

[25] = target: T25, 4H470-bN; assay: two-hybrid library CCNG1
T25 chain: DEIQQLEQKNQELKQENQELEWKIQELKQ

[26] = target: T26, 4H3961-bN; assay: two-hybrid library CCNG1
T26 chain: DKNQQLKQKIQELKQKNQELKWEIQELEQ

[27] = target: T27, 4H4038-bN; assay: two-hybrid library CCNG1
T27 chain: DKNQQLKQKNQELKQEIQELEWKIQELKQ

[28] = target: T28, P7A-bH; assay: two-hybrid library CCNG1
T28 chain: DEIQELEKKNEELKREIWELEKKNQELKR

[29] = target: T29, P9A-bH; assay: two-hybrid library CCNG1
T29 chain: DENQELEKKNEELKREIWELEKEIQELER

[30] = target: T30, P5A-bH; assay: two-hybrid library CCNG1
T30 chain: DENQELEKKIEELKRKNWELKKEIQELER

[31] = target: T31, P6A-bH; assay: two-hybrid library CCNG1
T31 chain: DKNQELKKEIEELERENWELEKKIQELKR

[32] = target: T32, P8A-bH; assay: two-hybrid library CCNG1
T32 chain: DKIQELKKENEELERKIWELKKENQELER

[33] = target: T33, 4H3926-bN; assay: two-hybrid library CCNG1
T33 chain: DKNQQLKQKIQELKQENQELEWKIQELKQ

[34] = target: T34, 4H626-bN; assay: two-hybrid library CCNG1
T34 chain: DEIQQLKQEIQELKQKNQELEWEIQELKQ

[35] = target: T35, 4H3129-bN; assay: two-hybrid library CCNG1
T35 chain: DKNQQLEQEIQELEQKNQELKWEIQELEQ

[36] = target: T36, 4H3172-bN; assay: two-hybrid library CCNG1
T36 chain: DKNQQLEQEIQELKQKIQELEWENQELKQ

[37] = target: T37, 4H3414-bN; assay: two-hybrid library CCNG1
T37 chain: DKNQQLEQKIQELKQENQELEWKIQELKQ

[38] = target: T38, 4H3628-bN; assay: two-hybrid library CCNG1
T38 chain: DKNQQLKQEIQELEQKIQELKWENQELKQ

[39] = target: T39, 4H3858-bN; assay: two-hybrid library CCNG1
T39 chain: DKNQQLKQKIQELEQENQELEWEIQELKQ

[40] = target: T40, 4H3631-bN; assay: two-hybrid library CCNG1
T40 chain: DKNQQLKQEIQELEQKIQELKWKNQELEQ

[41] = target: T41, 4H570-bN; assay: two-hybrid library CCNG1
T41 chain: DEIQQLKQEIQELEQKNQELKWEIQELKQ

[42] = target: T42, 4H3974-bN; assay: two-hybrid library CCNG1
T42 chain: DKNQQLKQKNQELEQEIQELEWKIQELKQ

[43] = target: T43, 4H584-bN; assay: two-hybrid library CCNG1
T43 chain: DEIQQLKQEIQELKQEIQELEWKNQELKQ

[44] = target: T44, 4H3277-bN; assay: two-hybrid library CCNG1
T44 chain: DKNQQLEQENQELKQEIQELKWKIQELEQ

[45] = target: T45, 4H850-bN; assay: two-hybrid library CCNG1
T45 chain: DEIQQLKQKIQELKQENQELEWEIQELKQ

[46] = target: T46, 4H1985-bN; assay: two-hybrid library CCNG1
T46 chain: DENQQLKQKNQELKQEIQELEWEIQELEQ

[47] = target: T47, 4H3638-bN; assay: two-hybrid library CCNG1
T47 chain: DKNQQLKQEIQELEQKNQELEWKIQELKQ

[48] = target: T48, 4H3175-bN; assay: two-hybrid library CCNG1
T48 chain: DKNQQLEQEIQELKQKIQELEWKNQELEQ

[49] = target: T49, 4H3298-bN; assay: two-hybrid library CCNG1
T49 chain: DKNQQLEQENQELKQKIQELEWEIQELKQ

[50] = target: T50, 4H3817-bN; assay: two-hybrid library CCNG1
T50 chain: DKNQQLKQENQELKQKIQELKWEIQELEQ

[51] = target: T51, 4H3497-bN; assay: two-hybrid library CCNG1
T51 chain: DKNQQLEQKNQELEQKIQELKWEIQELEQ

[52] = target: T52, 4H3613-bN; assay: two-hybrid library CCNG1
T52 chain: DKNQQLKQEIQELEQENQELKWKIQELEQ

[53] = target: T53, 4H619-bN; assay: two-hybrid library CCNG1
T53 chain: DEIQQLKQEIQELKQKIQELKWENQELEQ

[54] = target: T54, 4H591-bN; assay: two-hybrid library CCNG1
T54 chain: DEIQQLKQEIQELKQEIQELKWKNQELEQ

[55] = target: T55, 4H3462-bN; assay: two-hybrid library CCNG1
T55 chain: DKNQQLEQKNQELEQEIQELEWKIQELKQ

[56] = target: T56, 4H906-bN; assay: two-hybrid library CCNG1
T56 chain: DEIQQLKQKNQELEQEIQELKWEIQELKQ

[57] = target: T57, 4H3162-bN; assay: two-hybrid library CCNG1
T57 chain: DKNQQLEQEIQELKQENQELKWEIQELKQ

[58] = target: T58, P4bH1; assay: two-hybrid library CCNG1
T58 chain: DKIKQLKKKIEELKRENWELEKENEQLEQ

[59] = target: T59, 4H491-bN; assay: two-hybrid library CCNG1
T59 chain: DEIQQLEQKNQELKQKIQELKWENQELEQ

[60] = target: T60, P4A-bH; assay: two-hybrid library CCNG1
T60 chain: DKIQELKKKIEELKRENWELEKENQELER

DENAALKAKIAALKAKNAALKAEIAALEG [4H1913-AA]
interaction score [1]: -1.16
interaction score [2]: 0.365
interaction score [3]: -0.0687
interaction score [4]: 0.862
interaction score [5]: -2.69
interaction score [6]: -0.535
interaction score [7]: -1.83
interaction score [8]: -0.895
interaction score [9]: 1.8
interaction score [10]: 0.453
interaction score [11]: -0.832
interaction score [12]: -1.02
interaction score [13]: -1.42
interaction score [14]: -0.293
interaction score [15]: -0.536
interaction score [16]: -1.12
interaction score [17]: -1.85
interaction score [18]: -1.21
interaction score [19]: -0.87
interaction score [20]: -1.62
interaction score [21]: -1.29
interaction score [22]: -1.9
interaction score [23]: -1.61

DKNQQLKQKIQELKQEIQELEWENQELEQ [4H3907-bN]
interaction score [24]: -1.04
interaction score [25]: -1.7
interaction score [26]: -1.64
interaction score [27]: -2.02

DENQELEKKIEELKRKNWELKKEIQELER [P5A-bH]
interaction score [28]: -0.756
interaction score [29]: -0.708
interaction score [30]: -1.13
interaction score [31]: 1.49
interaction score [32]: 1.32

DENQQLKQKNQELKQEIQELEWEIQELEQ [4H1985-bN]
interaction score [33]: -1.25
interaction score [34]: -0.889
interaction score [35]: -2.06
interaction score [36]: -0.909
interaction score [37]: -1.17
interaction score [38]: -1.17
interaction score [39]: -0.987
interaction score [40]: -1.53
interaction score [41]: -1.42
interaction score [42]: -1.17
interaction score [43]: -1.72
interaction score [44]: -1.75
interaction score [45]: -1.6
interaction score [46]: -2.05
interaction score [47]: -1.17
interaction score [48]: -2.05
interaction score [49]: -0.626
interaction score [50]: -0.872
interaction score [51]: -1.28
interaction score [52]: -1.86
interaction score [53]: -1.93
interaction score [54]: -0.871
interaction score [55]: -1.4
interaction score [56]: -1.03
interaction score [57]: -1.41

DKNQQLKQKNQELKQEIQELEWKIQELKQ [4H4038-bN]
interaction score [27]: -0.153

DEIQQLEQKNQELKQKIQELKWENQELEQ [4H491-bN]
interaction score [58]: -0.336
interaction score [59]: -0.336

DKIQELKKKIEELKRENWELEKENQELER [P4A-bH]
interaction score [60]: -1.38
interaction score [28]: -0.412
interaction score [29]: -0.144
interaction score [30]: -0.285
interaction score [31]: -2.06
interaction score [32]: 0.0606
